Results as given in article PMC6692331.

How the values were obtained:
[1] = target: humanized Archaeoglobus ferritin (HumFt) (Archaeoglobus fulgidus | human); test: SEC; HP-SEC with UV (220, 410 nm) and fluorimetric detection; ferritin dissociated without MgCl2, mixed with a 20 fold molar excess of Cyt C, re-assembled with 50 mM MgCl2; mobile phase 20 mM HEPES pH 7.4, 50 mM MgCl2; Cyt C signal at the retention time of the ferritin 24-mer (encapsulation in the cavity)
[2] = target: carboxymethylated humanized ferritin (S-CMHumFt) (Archaeoglobus fulgidus | human); test: as above

stoichiometry N [1]: 0.43 Cyt C:HumFt
stoichiometry N [2]: 1.4 Cyt C:HumFt
Substance: cytochrome C from equine heart (from UniProt P00004 1-105) (natural protein)
